From US20120329997A1 (Hoffmann-La Roche, published 2012)
Substitutions are numbered along the chain they refer to. Like-named read-outs stand apart in the source and are kept apart here.

Columns and labels:
[1] = biological target: T1, full-length wildtype CSF-1R (wt CSF-1R) (human, UniProt P07333 20-972); assay: cell-based or functional assay
[2] = biological target: mutant CSF-1R L301S Y969F (human, UniProt P07333 20-972); assay: cell-based or functional assay
[3] = biological target: CSF-1R ECD (R&D-Systems 329-MR or in-house subcloned pCMV-presS-HisAvitag-hCSF-1R-ECD) (human) (UniProt P07333); assay: SPR (BIACORE A100), 35 C, antibody captured, CSF-1R ECD in solution
Chain of CSF-1R ECD (R&D-Systems 329-MR or in-house subcloned pCMV-presS-HisAvitag-hCSF-1R-ECD) (human) (P07333 20-517 limits assumed): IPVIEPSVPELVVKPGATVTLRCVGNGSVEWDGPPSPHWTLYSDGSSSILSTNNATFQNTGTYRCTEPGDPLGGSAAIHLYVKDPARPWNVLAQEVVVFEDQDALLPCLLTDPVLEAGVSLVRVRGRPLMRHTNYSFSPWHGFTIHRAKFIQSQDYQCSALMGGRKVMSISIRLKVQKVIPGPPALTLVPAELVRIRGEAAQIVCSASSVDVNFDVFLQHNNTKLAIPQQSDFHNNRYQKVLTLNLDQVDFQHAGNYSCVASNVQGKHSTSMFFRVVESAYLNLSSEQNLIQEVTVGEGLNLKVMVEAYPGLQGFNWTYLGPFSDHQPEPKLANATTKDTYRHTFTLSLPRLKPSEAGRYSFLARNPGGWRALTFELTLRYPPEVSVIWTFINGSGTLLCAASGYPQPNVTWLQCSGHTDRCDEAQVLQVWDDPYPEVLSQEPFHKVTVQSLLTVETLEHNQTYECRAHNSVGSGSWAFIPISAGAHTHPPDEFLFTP

[4] = biological target: huCSF-1R-huFc chimera (soluble extracellular domain) (human) (UniProt P07333); assay: competition ELISA, inhibition of CSF-1 binding to immobilized huCSF-1R-huFc
Chain of huCSF-1R-huFc chimera (soluble extracellular domain) (human) (P07333 20-517, change not shown): as the sequence (P07333 20-517 limits assumed) above

[5] = biological target: CSF-1R ECD (R&D-Systems 329-MR or in-house subcloned pCMV-presS-HisAvitag-hCSF-1R-ECD) (human) (UniProt P07333); assay: SPR cross-competition, 25 C; second antibody on CSF-1R held by captured Antibody 1; competitor <CSF-1R>7H5.2G10 (Antibody 1)
[6] = biological target: CSF-1R ECD (R&D-Systems 329-MR or in-house subcloned pCMV-presS-HisAvitag-hCSF-1R-ECD) (human) (UniProt P07333); assay: SPR cross-competition, 25 C; second antibody on CSF-1R held by captured Antibody 1; competitor <CSF-1R>10A4.1G11 (Antibody 1)
[7] = biological target: CSF-1R ECD (R&D-Systems 329-MR or in-house subcloned pCMV-presS-HisAvitag-hCSF-1R-ECD) (human) (UniProt P07333); assay: SPR cross-competition, 25 C; second antibody on CSF-1R held by captured Antibody 1; competitor SC-02, clone 2-4A5 (Antibody 1)
[8] = biological target: T1, full-length wildtype CSF-1R (wt CSF-1R); assay: cell-based or functional assay; remark: listed apart in the source
[9] = biological target: T1, full-length wildtype CSF-1R (wt CSF-1R); assay: cell-based or functional assay; remark: listed apart in the source
[10] = biological target: T1, full-length wildtype CSF-1R (wt CSF-1R); assay: cell-based or functional assay; remark: listed apart in the source
[11] = biological target: T2, CSF-1R ECD (R&D-Systems 329-MR or in-house subcloned pCMV-presS-HisAvitag-hCSF-1R-ECD) (human, UniProt P07333 20-517); assay: SPR (BIACORE A100), 35 C, antibody captured, CSF-1R ECD in solution
T2 construct: also called CSF-1R (R&D-Systems Cat. No. 329-MR)
T2 sequence (P07333 20-517 limits assumed): as above
Procedure: For affinity measurements 36 μg/ml anti mouse Fcγ antibodies (from goat, Jackson Immuno Reasearch JIR115-005-071) have been coupled to the chip surface for capturing the antibodies against CSF-1R. CSF-1R ECD (R&D-Systems 329-MR or in-house subcloned pCMV-presS-H isAvitag-hCSF-1R-ECD were added in various concentrations in solution. Association was measured by an CSF-1R-injection of 1.5 minutes at 35° C.; dissociation was measured by washing the chip surface with buffer for 10 minutes at 35° C. Anti CSF-IR SC-02, clone 2-4A5 (Santa Cruz Biotechnology, US; see also Sherr, C. J., et al., Cell 41 (1985) 665-676), which inhibits the ligand-receptor interaction, was used as reference control.

[12] = biological target: T3, huCSF-1R-huFc chimera (soluble extracellular domain) (human, UniProt P07333 20-517); assay: competition ELISA, inhibition of CSF-1 binding to immobilized huCSF-1R-huFc
T3 construct: also called huCSF-1R ECDhuFc chimera; not shown: human Fc
T3 sequence (P07333 20-517, change not shown): as the sequence (P07333 20-517 limits assumed) above
Procedure: At the beginning, plates were coated with […] goat F(ab′)₂ biotinylated anti Fcγ (Jackson ImmunoResearch., Cat. No. 109-006-170) for 1 hour (h).
Thereafter the wells were blocked with PBS supplemented with 0.2% Tween®-20 and 2% BSA (Roche Diagnostics GmbH, DE) for 0.5 h. 75 ng/ml of huCSF-1R-huFc chimera (soluble extracellular domain) was immobilized to plate for 1 h. Then dilutions of purified antibodies in PBS/0.05% Tween20/0.5% BSA were incubated for 1 h. After adding a mixture of 3 ng/ml CSF-1 (Biomol, DE, Cat. No. 60530), 50 ng/ml biotinylated anti CSF-1 clone BAF216 (R&D Systems, UK) and 1:5000 diluted streptavidin HRP (Roche Diagnostics GmbH, DE, Cat. No. 11089153001) for 1 h the plates were washed 6 times with PBST. Anti CSF-IR SC-02, clone 2-4A5 (Santa Cruz Biotechnology, US), which inhibits the ligand-receptor interaction, was used as positive control. Plates were developed with freshly prepared BM Blue® POD substrate solution (BM Blue®: 3,3″-5,5″-Tetramethylbenzidine, Roche Diagnostics GmbH, DE, Cat. No. 11484281001) for 30 minutes at RT. Absorbance was measured at 370 nm. […]

Chain of mutant CSF-1R L301S Y969F (P07333 20-972 L301S/Y969F limits assumed): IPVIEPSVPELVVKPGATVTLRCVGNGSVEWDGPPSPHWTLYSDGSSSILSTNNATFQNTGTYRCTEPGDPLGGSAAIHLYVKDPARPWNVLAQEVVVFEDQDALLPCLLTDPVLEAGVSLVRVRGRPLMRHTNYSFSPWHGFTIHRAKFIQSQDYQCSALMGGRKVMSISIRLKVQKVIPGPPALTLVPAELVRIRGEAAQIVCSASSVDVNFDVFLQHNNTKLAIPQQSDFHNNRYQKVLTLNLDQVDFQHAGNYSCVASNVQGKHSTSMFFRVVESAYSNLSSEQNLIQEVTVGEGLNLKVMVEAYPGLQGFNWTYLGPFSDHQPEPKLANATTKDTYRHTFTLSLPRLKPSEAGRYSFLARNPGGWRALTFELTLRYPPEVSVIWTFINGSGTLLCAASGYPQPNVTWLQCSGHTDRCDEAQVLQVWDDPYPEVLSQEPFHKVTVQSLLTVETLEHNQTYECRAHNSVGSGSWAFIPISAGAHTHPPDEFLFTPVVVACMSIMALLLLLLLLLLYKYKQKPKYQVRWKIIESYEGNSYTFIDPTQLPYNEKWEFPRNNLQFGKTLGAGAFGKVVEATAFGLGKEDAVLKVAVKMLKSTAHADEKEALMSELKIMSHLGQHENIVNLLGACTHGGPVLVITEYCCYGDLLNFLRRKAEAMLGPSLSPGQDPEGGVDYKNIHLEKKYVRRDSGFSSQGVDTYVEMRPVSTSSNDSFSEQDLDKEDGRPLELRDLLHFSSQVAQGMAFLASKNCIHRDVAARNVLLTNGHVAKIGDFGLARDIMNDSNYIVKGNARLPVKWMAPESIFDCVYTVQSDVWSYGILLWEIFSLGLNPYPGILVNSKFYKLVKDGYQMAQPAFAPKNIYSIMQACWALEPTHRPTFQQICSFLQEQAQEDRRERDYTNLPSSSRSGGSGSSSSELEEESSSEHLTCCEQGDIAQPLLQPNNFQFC
T1 sequence (P07333 20-972 limits assumed): as the sequence (P07333 20-972 L301S/Y969F limits assumed) above, with S282L, F950Y counted along it

## Anti CSF-1R SC-02, clone 2-4A5 (Santa Cruz Biotechnology, US) (antibody)
[1]
  % inhibition 10 ug/ml antibody concentration, BeWo tumor cells in 3D culture: 40%
  % survival, NIH3T Cells expressing wtCSF-1R, 10 ug/ml antibody: 62%
  IC50 CSF-1R Phosphorylation: 412 ng/mL
  IC50 [nM], inhibition of the survival of monocytes: 2.4 nM
[2]
  % survival, NIH3T Cells expressing Mutant CSF-1R, 10 ug/ml antibody: 66%
[3]
  Kd: 2.73 nM
  koff: 0.00139 s⁻¹
  kon: 509000 M⁻¹ s⁻¹
  t1/2: 8.31 min
[4]
  IC50: 0.0309 µg/mL
[5]
  percentage (%) of expected binding response: 42%
[6]
  percentage (%) of expected binding response: 24%
[7]
  percentage (%) of expected binding response: -2%

B1: <CSF-1R>7H5.2G10 (antibody, V domains shown)
VH: EVQLQQSGPELVKPGASMKISCKASGYSFTDYTVNWVKQSHGENLDWIGLIIPYNGGTSYNHNFRGKATLTVDKSSSTAYMELLSLTSEDSAVYYCTRGGGDFTTGYTMDYWGHGTSVTVSS
VL: DIQMTQSSSYLSVSLGGTVTINCKASDHIHDWLAWYQQQPGNAPRLLISGATSLETGVPSRFSGGGSGKDYSLIITSLQTEDFATYYCQQYWSIPWTFGGGTKLEIKR
notes: Mouse monoclonal antibody from a hybridoma (NMRI mice); also called deposited antibody DSM ACC2922
[8]
  IC50 CSF-1R Phosphorylation: 49 ng/mL
[9]
  % survival, NIH3T Cells expressing wtCSF-1R, 10 ug/ml antibody: 2%
[2]
  % survival, NIH3T Cells expressing Mutant CSF-1R, 10 ug/ml antibody: 112%
[10]
  IC50 [nM], inhibition of the survival of monocytes: 1 nM
[11]
  Kd: 0.54 nM
  koff: 0.00038 s⁻¹
  kon: 700000 M⁻¹ s⁻¹
  t1/2: 30.4 min
[12]
  IC50: 0.0269 µg/mL

B2: <CSF-1R>6G4.1C8 (antibody, V domains shown)
VH: B1 VH with E89D, H114Q
VL: B1 VL with D31N, F83V
notes: Mouse monoclonal antibody from a hybridoma
[8]
  IC50 CSF-1R Phosphorylation: 82.6 ng/mL
[9]
  % survival, NIH3T Cells expressing wtCSF-1R, 10 ug/ml antibody: 3%
[2]
  % survival, NIH3T Cells expressing Mutant CSF-1R, 10 ug/ml antibody: 91%
[11]
  Kd: 0.52 nM
  koff: 0.00029 s⁻¹
  kon: 570000 M⁻¹ s⁻¹
  t1/2: 39.4 min
[12]
  IC50: 0.0212 µg/mL

B3: <CSF-1R>10A4.1G11 (antibody, V domains shown)
VH: EVQLQQFGTELVKPGASVKISCKASGYTFTDYNMDWVKQSHGKSLEWIGDINPNYDSTTYNQKFKGKATLTVDKSSSTAYMELRSLTSEDTAVYYCARWRFFAMDYWGQGTSVTVSS
VL: DIQMTQSSSSFSVSLGDRVTITCKASEDIYNRLAWYQQKPGNAPRLLISGASSLETGVPSRFSGSGSGKDYTLSITSLQTEDVATYYCQQYWSIPWTFGGGTKLEIKR
notes: as for B2
[8]
  IC50 CSF-1R Phosphorylation: 15.4 ng/mL
[9]
  % survival, NIH3T Cells expressing wtCSF-1R, 10 ug/ml antibody: 3%
[2]
  % survival, NIH3T Cells expressing Mutant CSF-1R, 10 ug/ml antibody: 144%
[10]
  IC50 [nM], inhibition of the survival of monocytes: 0.4 nM
[11]
  Kd: 1.77 nM
  koff: 0.0013 s⁻¹
  kon: 740000 M⁻¹ s⁻¹
  t1/2: 8.89 min
[12]
  IC50: 0.0634 µg/mL
